Measured values from US20240327500A1 (NATIONAL UNIVERSITY OF SINGAPORE, published 2024).
No end group written: not given here.

Key:
[1] = molecular target: HBV virions (Genotype D) (Hepatitis B virus genotype D); assay: cell-based or functional assay
[2] = molecular target: T1, HBsAg genotype B (adw) (Hepatitis B virus genotype B (adw), UniProt Q9PWW3 175-400); assay: ELISA on HBsAg of four genotypes
T1 construct: the form coated in the ELISA is not described

[3] = molecular target: T2, HBsAg genotype A (adw2) (Hepatitis B virus genotype A (adw2), UniProt P03141 175-400); assay: ELISA on HBsAg of four genotypes
T2 construct: the form coated in the ELISA is not described

[4] = molecular target: T3, HBsAg genotype C (adr) (Hepatitis B virus genotype C (adr), UniProt P30019 1-226); assay: ELISA on HBsAg of four genotypes
T3 construct: the form coated in the ELISA is not described

[5] = molecular target: T4, HBsAg loop 2 linear peptide (Hepatitis B virus, not fully specified; cysteine pairing not given here); assay: direct ELISA on coated linear peptide (50 ng/well)
T4 construct: The peptide is printed with alternative residues at one position
T4 peptide: CTKPTDGNCT

[6] = molecular target: T5, HBsAg loop 1 linear peptide (Hepatitis B virus, not fully specified; cysteine pairing not given here); assay: direct ELISA on coated linear peptide (50 ng/well)
T5 construct: The peptide is printed with alternative residues at two positions
T5 peptide: TCTTPAQGNSMFPSC

[7] = molecular target: T6, recombinant small-HBsAg (Hepatitis B virus); assay: QCM (Attana Cell A200), rHBsAg amine-coupled on chip, 25 C
T6 construct: also called recombinant HBsAg; rHBsAg

B1: mAb006-11-IgG4 (antibody, V domains shown)
VH: QLQLQESGPGLVKPSETLSLTCTVSGGSMNINDYYWDWVRLSPGKGLEWIGAIYSSGTTYYNPSLKSRVTISVDMSKDQFSLRLSSVTAADTAVYYCVRDGPHRLYYGSGTYYNPRGGYYSYALDVWGQGTTVIV
VL: QLVLTQSPSASASLGASVKLTCTLSSGHGTYAIAWHQLRSEKGPRYLMKVNSDGSHIKGDGIPDRFSGSSSGAERYLIISSLQSEDEADYYCQTWGTGIVIFGGGTKLTVL
- EC50, in-vitro neutralization (HBeAg data) [1]: 0.242 nM

B2: mAb006-11-IgG2 (antibody, V domains shown)
VH: B1 VH
VL: B1 VL
- EC50, in-vitro neutralization (HBeAg data) [1]: 1.32 nM

B3: mAb006-11-IgG1 (antibody, V domains shown)
VH: B1 VH
VL: B1 VL
notes: also called mAb11; mAb006-11G1
- binding result [2]: binds
- binding result [3]: binds
- binding result [4]: binds
- EC50, in-vitro neutralization (HBeAg data) [1]: 12.6 nM
- binding result [5]: no binding
- binding result [6]: no binding
- Kd [7]: 22.7 nM

B4: mAb006-11-IgG3 (antibody, V domains shown)
VH: B1 VH
VL: B1 VL
- EC50, in-vitro neutralization (HBeAg data) [1]: 1.05 nM
